Measurements reported in patent publication US20220073922, “Aptamers and use thereof” (Aptitude Medical Systems, Inc., published 2022).

Experiments:
Angiopoietin-2 (Ang2) [1] = target: T1, Angiopoietin-2 (Ang2) (Homo sapiens, UniProt O15123 O15123:19-496); assay: flow; PBSMCT, 37 C; details: tags: His tag, R&D Systems 623-AN; label: biotin
Procedure: (§1) Various mutations and truncated variants of a representative anti-Ang2 aptamer (AMS0525) were obtained and their binding affinity to Ang2 were measured using magnetic bead partitioning. Biotinylated anti-Ang2 aptamers were conjugated to the 1 μm streptavidin-coated MyOne Streptavidin Cl magnetic beads (Thermo Fisher Scientific, 65002). Binding assays were performed by incubating fixed concentration of aptamer (0.01 nM) and Ang2 protein at concentrations ranging from 10⁻¹² to 10⁻⁸ M in PBSMCT buffer (DPBS, pH 7.2 with 2.5 mM MgCl₂, 1 mM CaCl₂) and 0.01% TWEEN-20) at 37° C. for 90 minutes. Bound target protein was partitioned by magnetic separation and subsequently labeled via fluorescent anti-His-tag antibody. The fraction of anti-Ang2 aptamer bound was quantified by flow cytometry (BD Accuri C6 Plus). Raw binding data were corrected for nonspecific background binding of target protein to empty magnetic beads. The fraction of bound anti-Ang2 aptamer was plotted as a function of protein concentration and a non-linear curve-fitting algorithm (Langmuir one-site binding model) was used to extract equilibrium binding constants (KD values) from the data (FIG. 4A).

Angiopoietin-2 (Ang2) [2] = target: Angiopoietin-2 (Ang2) (Mus musculus, UniProt O35608 O35608:19-496); assay: flow; PBSMCT, 37 C; details: tags: R&D Systems 7186-AN; label: biotin
Chain of Angiopoietin-2 (Ang2) (Mus musculus, UniProt O35608 O35608:19-496) (O35608 19-496, one chain of several): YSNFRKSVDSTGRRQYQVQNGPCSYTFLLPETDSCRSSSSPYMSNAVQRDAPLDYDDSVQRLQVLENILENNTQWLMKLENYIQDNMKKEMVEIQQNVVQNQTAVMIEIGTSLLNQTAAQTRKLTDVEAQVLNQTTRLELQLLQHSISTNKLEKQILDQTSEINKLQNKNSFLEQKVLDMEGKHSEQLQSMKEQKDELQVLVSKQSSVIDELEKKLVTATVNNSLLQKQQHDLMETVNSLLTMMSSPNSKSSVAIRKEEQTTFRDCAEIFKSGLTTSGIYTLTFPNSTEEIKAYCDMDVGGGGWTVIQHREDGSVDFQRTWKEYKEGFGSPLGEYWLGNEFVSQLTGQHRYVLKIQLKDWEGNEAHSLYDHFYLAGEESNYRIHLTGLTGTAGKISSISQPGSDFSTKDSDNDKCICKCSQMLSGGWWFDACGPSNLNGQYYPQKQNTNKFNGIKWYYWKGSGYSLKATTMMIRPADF
Procedure: as §1

Angiopoietin-1 (Ang1) = Angiopoietin-1 (Ang1) (Homo sapiens, UniProt Q15389 Q15389:16-498); assay: flow; does not recognize human Ang1; details: tags: R&D Systems 923-AN; label: biotin
Chain of Angiopoietin-1 (Ang1) (Q15389 16-498, one chain of several): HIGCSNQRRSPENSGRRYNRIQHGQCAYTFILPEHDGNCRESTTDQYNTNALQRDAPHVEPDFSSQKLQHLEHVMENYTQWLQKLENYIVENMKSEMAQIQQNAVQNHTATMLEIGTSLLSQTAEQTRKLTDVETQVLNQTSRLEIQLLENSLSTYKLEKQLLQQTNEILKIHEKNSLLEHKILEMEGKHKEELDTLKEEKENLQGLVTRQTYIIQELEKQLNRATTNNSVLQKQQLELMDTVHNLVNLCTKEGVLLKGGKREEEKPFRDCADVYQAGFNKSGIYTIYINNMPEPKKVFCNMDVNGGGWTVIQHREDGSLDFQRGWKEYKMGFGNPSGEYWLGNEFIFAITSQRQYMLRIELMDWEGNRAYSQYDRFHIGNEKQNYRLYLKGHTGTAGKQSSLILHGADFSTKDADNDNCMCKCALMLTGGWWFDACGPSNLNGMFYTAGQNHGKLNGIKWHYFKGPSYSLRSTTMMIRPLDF

Angiopoietin-2 (Ang2) [3] = target: T1, Angiopoietin-2 (Ang2); assay: competition; blocks Ang2-Tie2 binding; PBSMCT, 37 C; details: tags: His tag, R&D Systems 623-AN; label: biotin
Procedure: (§4) Ang2-bound Tie2 and anti-Ang2 aptamers were partitioned by magnetic separation, and the Ang2-bound Tie2 were subsequently labeled via a fluorescent anti-human antibody. The fraction of Ang2-bound receptor was quantified by flow cytometry (BD Accuri C6 Plus). Raw binding data were corrected for nonspecific background binding and normalized to the fluorescence intensity from the sample with 1 nM Tie2 but without anti-Ang2 aptamer competition. The fraction of bound receptor was plotted as a function of anti-Ang2 aptamer concentration and a non-linear curve-fitting algorithm (dose-response inhibition) was used to extract IC₅₀ values from the data (FIG. 4C).

[4] = target: T2, VEGF-121 (VEGFA isoform 121) (Homo sapiens, UniProt P15692 SEQ:1-121); assay: competition; blocks VEGF-R1 and VEGF-R2 binding; PBSMCT, 37 C; details: chain copies: 2 (inferred); label: biotin; stem-loop with bulges
Procedure: (§2) Three different recombinant VEGF receptors (two VEGF-R1 and one VEGF-R2) were tested (R&D Systems, 3516-FL, 321-FL, and 357-KD). […] VEGF-bound receptors and anti-VEGF aptamers were partitioned by magnetic separation, and the VEGF-bound VEGF receptors were subsequently labeled via a fluorescent anti-human antibody. The fraction of VEGF-bound receptor was quantified by flow cytometry (BD Accuri C6 Plus). Raw binding data were corrected for nonspecific background binding and normalized to the fluorescence intensity from the sample with 1 nM VEGF receptor but without anti-VEGF aptamer competition. The fraction of bound receptor was plotted as a function of anti-VEGF aptamer concentration and a non-linear curve-fitting algorithm (dose-response inhibition) was used to extract IC₅₀ values from the data (FIG. 2).

[5] = target: T3, VEGF-165 (VEGFA isoform 165) (Homo sapiens); assay: as above; details: chain copies: 2 (inferred); label: biotin; stem-loop with bulges
T3 chain: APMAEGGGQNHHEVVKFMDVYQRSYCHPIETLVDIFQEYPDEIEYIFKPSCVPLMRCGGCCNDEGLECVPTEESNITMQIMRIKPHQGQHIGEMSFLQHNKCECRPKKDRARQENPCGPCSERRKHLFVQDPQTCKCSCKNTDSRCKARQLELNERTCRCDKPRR
Procedure: as §2

[6] = target: T2, VEGF-121 (VEGFA isoform 121); assay: flow; PBSMCT, 37 C; details: chain copies: 2 (inferred); label: biotin; stem-loop with bulges
Procedure: (§3) Truncated and modified variants of the anti-VEGF aptamers of the present disclosure were prepared by LGC Biosearch Technologies (Novato, Calif.), and their binding affinity to corresponding targets were examined. Briefly, the equilibrium binding constants of the enriched libraries were measured using magnetic bead partitioning. Biotinylated anti-VEGF aptamers were conjugated to the 1 μm streptavidin-coated MyOne Streptavidin Cl magnetic beads (Thermo Fisher Scientific, 65002). Binding assays were performed by incubating fixed concentration of anti-VEGF aptamer (0.01 nM) and target protein at concentrations ranging from 10⁻¹² to 10⁻⁸ M in PBSMCT buffer (DPBS, pH 7.2 with 2.5 mM MgCl₂, 1 mM CaCl₂) and 0.01% TWEEN-20) at 37° C. for 90 minutes. Bound target protein was partitioned by magnetic separation and subsequently labeled via fluorescent anti-VEGF or anti-His-tag antibody. The fraction of anti-VEGF aptamer bound was quantified by flow cytometry (BD Accuri C6 Plus). Raw binding data were corrected for nonspecific background binding of target protein to empty magnetic beads. The fraction of bound anti-VEGF aptamer was plotted as a function of protein concentration and a non-linear curve-fitting algorithm (Langmuir one-site binding model) was used to extract equilibrium binding constants (KD values) from the data (FIG. 1).

[7] = target: T3, VEGF-165 (VEGFA isoform 165); assay: flow; PBSMCT, 37 C; details: chain copies: 2 (inferred); label: biotin; stem-loop with bulges
Procedure: as §3

[8] = target: T2, VEGF-121 (VEGFA isoform 121); assay: flow; PBSMCT, 37 C; Table 7 gives a different value; details: chain copies: 2 (inferred); label: biotin; stem-loop with bulges
Procedure: as §3

[9] = target: T3, VEGF-165 (VEGFA isoform 165); assay: as above; details: chain copies: 2 (inferred); label: biotin; stem-loop with bulges
Procedure: as §3

[10] = target: T2, VEGF-121 (VEGFA isoform 121); assay: flow; PBSMCT, 37 C; Table 6 gives a different value; details: chain copies: 2 (inferred); label: biotin; stem-loop with bulges
Procedure: as §3

[11] = target: T3, VEGF-165 (VEGFA isoform 165); assay: as above; details: chain copies: 2 (inferred); label: biotin; stem-loop with bulges
Procedure: as §3

Angiopoietin-2 (Ang2) [12] = target: T1, Angiopoietin-2 (Ang2); assay: competition; blocks Ang2-Tie2; details: tags: His tag, R&D Systems 623-AN; label: 5'-biotin
Procedure: as §4

[13] = target: T2, VEGF-121 (VEGFA isoform 121); assay: flow; details: chain copies: 2 (inferred); label: 5'-biotin
Angiopoietin-2 (Ang2) [14] = target: T1, Angiopoietin-2 (Ang2); assay: flow; details: tags: His tag, R&D Systems 623-AN; label: 5'-biotin

T1 sequence (O15123 19-496, one chain of several): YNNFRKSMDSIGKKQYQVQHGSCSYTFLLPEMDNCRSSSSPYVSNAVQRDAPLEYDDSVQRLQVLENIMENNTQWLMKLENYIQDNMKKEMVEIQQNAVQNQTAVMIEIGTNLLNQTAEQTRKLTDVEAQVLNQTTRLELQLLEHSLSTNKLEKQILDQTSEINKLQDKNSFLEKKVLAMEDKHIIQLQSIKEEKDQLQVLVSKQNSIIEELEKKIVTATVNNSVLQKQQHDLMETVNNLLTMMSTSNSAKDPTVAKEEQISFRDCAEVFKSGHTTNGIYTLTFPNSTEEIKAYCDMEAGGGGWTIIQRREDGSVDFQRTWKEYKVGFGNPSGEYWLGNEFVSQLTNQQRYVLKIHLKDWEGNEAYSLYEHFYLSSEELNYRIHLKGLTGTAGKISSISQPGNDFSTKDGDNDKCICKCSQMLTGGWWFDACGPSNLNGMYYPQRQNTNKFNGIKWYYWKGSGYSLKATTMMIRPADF

In the case of CGCAUAGAUAAGCCAACAAACGUACAUUCUCUGUUAGUAUUUUCUGCG (ssRNA, 2'-F all positions) [AMS0526], the Kd (Angiopoietin-2 (Ang2) [1]) is reported as 32 pM, the Kd (Angiopoietin-2 (Ang2) [2]) is reported as < 100 pM and the binding result (Angiopoietin-1 (Ang1)) is reported as “no binding”. The IC50 (Angiopoietin-2 (Ang2) [3]) was 83.9 pM.

CGCUAGAUGGCUAACACUAUUGUGGAGAUGCACUAGCG (ssRNA, 2'-F all positions) [AMS0427] gave an IC50 [4] of ~100 pM, an IC50 [5] of ~100 pM and a Kd [6] of 45 pM. For the same binder, the Kd [7] was 91 pM.

CGUGGAGAUGCAUUCUGUCGAAGAUUGGCUAACACG (ssRNA, 2'-F all positions) [AMS0426] showed a Kd [8] of 214 pM, a Kd [9] of 349 pM and an IC50 [4] of ~100 pM. It also gave an IC50 [5] of ~100 pM, a Kd [10] of 86 pM and a Kd [11] of 151 pM.

B1: AMSB103 (ssRNA)
RNA: CGCUAGAUGGCUAACACUAUUGUGGAGAUGCACUAGCGCGCAUAGAUAAGCCAACAAACGUACAUUCUCUGUUAGUAUUUUCUGCG
modifications: 2'-F all positions
In the case of B1, the IC50 (Angiopoietin-2 (Ang2) [12]) is reported as < 100 pM, the Kd [13] is reported as 39 pM and the Kd (Angiopoietin-2 (Ang2) [14]) is reported as 29 pM.
